The supplement of paper PMC9112550, “Optimization of the antimicrobial peptide Bac7 by deep mutational scanning” (BMC Biology, 2022)

Tested on: Escherichia coli TOP10
Test: shrunken log2 fold change of peptide-encoding DNA abundance (4.5 h post-induction vs induction); higher = less antimicrobial activity (less host growth inhibition)
Details: time post-induction: 4.5 h; library: site-saturation at positions 5, 18, 19, 20
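Also: peptides expressed intracellularly from a pBAD plasmid library in pooled LB shake-flask culture, induced with 0.3% L-arabinose, DNA abundance read by NGS, three biological replicates, DESeq2 with apeglm shrinkage.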

Sequence | shrunken log2 fold change
RRIRKRPPRLPRPRPRPLICPRP | 0.123
RRIRKRPPRLPRPRPRPMWVPRP | -0.232
RRIRKRPPRLPRPRPRPDNQPRP | -0.233
RRIRDRPPRLPRPRPRPDHWPRP | 0.0704
RRIRFRPPRLPRPRPRPVPPPRP | 0.46
RRIRLRPPRLPRPRPRPPTGPRP | 0.146
RRIRYRPPRLPRPRPRPFQDPRP | -0.139
RRIRTRPPRLPRPRPRPLHCPRP | -0.148
RRIRVRPPRLPRPRPRPKDRPRP | -0.0469
RRIRMRPPRLPRPRPRPSVDPRP | 0.508
RRIRLRPPRLPRPRPRPQGCPRP | 0.0879
RRIRRRPPRLPRPRPRPYNEPRP | -0.103
RRIRTRPPRLPRPRPRPAEIPRP | 0.083
RRIRFRPPRLPRPRPRPKQKPRP | -0.00156
RRIRGRPPRLPRPRPRPDCLPRP | 0.975
RRIRMRPPRLPRPRPRPLSKPRP | -0.103
RRIRNRPPRLPRPRPRPTHNPRP | -0.114
RRIRRRPPRLPRPRPRPLVPPRP | 0.175
RRIRFRPPRLPRPRPRPYHFPRP | -0.194
RRIRYRPPRLPRPRPRPANMPRP | -0.683
RRIRWRPPRLPRPRPRPKACPRP | 0.105
RRIRRRPPRLPRPRPRPDYGPRP | -0.28
RRIRVRPPRLPRPRPRPVCYPRP | 0.0382
RRIRNRPPRLPRPRPRPPHPPRP | 0.292
RRIRWRPPRLPRPRPRPQIHPRP | -0.681

Sequence | shrunken log2 fold change
RRIRTRPPRLPRPRPRPWSLPRP | -0.673
RRIRDRPPRLPRPRPRPLNAPRP | -0.0226
RRIRNRPPRLPRPRPRPHSMPRP | -0.027
RRIRERPPRLPRPRPRPDPQPRP | -0.102
RRIRKRPPRLPRPRPRPQYCPRP | -0.0171
RRIRYRPPRLPRPRPRPALCPRP | -0.0404
RRIRERPPRLPRPRPRPSYRPRP | 3.5
RRIRLRPPRLPRPRPRPNGWPRP | 0.044
RRIRSRPPRLPRPRPRPNLKPRP | 0.087
RRIRTRPPRLPRPRPRPDCGPRP | 0.759
RRIRPRPPRLPRPRPRPNDGPRP | -0.482
RRIRARPPRLPRPRPRPHWMPRP | 0.0379
RRIRNRPPRLPRPRPRPNIWPRP | -0.636
RRIRWRPPRLPRPRPRPHSPPRP | -0.09
RRIRMRPPRLPRPRPRPTPFPRP | 0.715
RRIRSRPPRLPRPRPRPSCSPRP | -0.231
RRIRQRPPRLPRPRPRPEDHPRP | -0.0311
RRIRYRPPRLPRPRPRPEVLPRP | -0.00228
RRIRDRPPRLPRPRPRPDYIPRP | 0.0998
RRIRNRPPRLPRPRPRPFGYPRP | -0.377
RRIRFRPPRLPRPRPRPGVCPRP | 0.307
RRIRTRPPRLPRPRPRPWCPPRP | -0.139
RRIRTRPPRLPRPRPRPCIDPRP | -0.519
RRIRFRPPRLPRPRPRPHPGPRP | -0.137
RRIRHRPPRLPRPRPRPHKHPRP | -0.546

Sequence | shrunken log2 fold change
RRIRRRPPRLPRPRPRPMKLPRP | -0.123
RRIRPRPPRLPRPRPRPNHQPRP | -0.251
RRIRPRPPRLPRPRPRPNVKPRP | -0.475
RRIRWRPPRLPRPRPRPSQPPRP | -0.0613
RRIRRRPPRLPRPRPRPTLSPRP | -0.0436
RRIRHRPPRLPRPRPRPDLLPRP | -0.0324
RRIRCRPPRLPRPRPRPKGDPRP | -0.0659
RRIRVRPPRLPRPRPRPFTIPRP | -0.085
RRIRCRPPRLPRPRPRPLPPPRP | 0.733
RRIRTRPPRLPRPRPRPKSMPRP | -0.62
RRIRIRPPRLPRPRPRPVVAPRP | -0.0606
RRIRVRPPRLPRPRPRPQMRPRP | 0.458
RRIRWRPPRLPRPRPRPFDCPRP | -0.0389
RRIRARPPRLPRPRPRPTKFPRP | 0.0943
RRIRARPPRLPRPRPRPDCIPRP | 0.446
RRIRLRPPRLPRPRPRPVDGPRP | 0.0489
RRIRLRPPRLPRPRPRPCICPRP | -0.346
RRIRFRPPRLPRPRPRPKCFPRP | -0.108
RRIRLRPPRLPRPRPRPRRHPRP | 0.214
RRIRQRPPRLPRPRPRPSPEPRP | -0.0086
RRIRHRPPRLPRPRPRPNPTPRP | -0.193
RRIRGRPPRLPRPRPRPNKSPRP | 0.96
RRIRCRPPRLPRPRPRPALCPRP | 0.185
RRIRNRPPRLPRPRPRPQNLPRP | -0.266
RRIRARPPRLPRPRPRPWFNPRP | -0.142

Sequence | shrunken log2 fold change
RRIRPRPPRLPRPRPRPYICPRP | -0.149
RRIRNRPPRLPRPRPRPYIHPRP | -0.387
RRIRNRPPRLPRPRPRPELYPRP | 0.23
RRIRSRPPRLPRPRPRPFREPRP | 0.0536
RRIRARPPRLPRPRPRPKYEPRP | 0.13
RRIRHRPPRLPRPRPRPCMPPRP | 0.0401
RRIRYRPPRLPRPRPRPDPVPRP | -0.0502
RRIRTRPPRLPRPRPRPGMEPRP | 0.013
RRIRMRPPRLPRPRPRPIREPRP | 0.425
RRIRIRPPRLPRPRPRPFWRPRP | -0.00848
RRIRCRPPRLPRPRPRPRRCPRP | 0.42
RRIRVRPPRLPRPRPRPFHHPRP | -0.182
RRIRPRPPRLPRPRPRPFWKPRP | 0.0756
RRIRKRPPRLPRPRPRPNSRPRP | 0.149
RRIRIRPPRLPRPRPRPFPQPRP | -0.549
RRIRKRPPRLPRPRPRPEAPPRP | 0.957
RRIRTRPPRLPRPRPRPLQFPRP | -0.497
RRIRKRPPRLPRPRPRPKDVPRP | -0.018
RRIRRRPPRLPRPRPRPLMNPRP | 0.312
RRIRFRPPRLPRPRPRPLYVPRP | -0.631
RRIRYRPPRLPRPRPRPKFCPRP | -0.291
RRIRTRPPRLPRPRPRPGMPPRP | -0.0497
RRIRDRPPRLPRPRPRPFRLPRP | -0.0192
RRIRHRPPRLPRPRPRPAKAPRP | 0.0344
RRIRTRPPRLPRPRPRPPVQPRP | 0.0423

Sequence | shrunken log2 fold change
RRIRGRPPRLPRPRPRPNKYPRP | -0.0952
RRIRVRPPRLPRPRPRPGAMPRP | 0.0686
RRIRWRPPRLPRPRPRPAPSPRP | 0.393
RRIRKRPPRLPRPRPRPTSGPRP | -0.064
RRIRRRPPRLPRPRPRPIRAPRP | 0.266
RRIRARPPRLPRPRPRPIIHPRP | -0.216
RRIRDRPPRLPRPRPRPAHIPRP | -0.0312
RRIRYRPPRLPRPRPRPTNRPRP | -0.363
RRIRKRPPRLPRPRPRPPMGPRP | 0.185
RRIRHRPPRLPRPRPRPMYFPRP | -0.00207
RRIRKRPPRLPRPRPRPAKPPRP | 0.464
RRIRSRPPRLPRPRPRPPPRPRP | 1.09
RRIRKRPPRLPRPRPRPYWHPRP | -0.684
RRIRFRPPRLPRPRPRPHCMPRP | -0.371
RRIRDRPPRLPRPRPRPYPQPRP | -0.582
RRIRPRPPRLPRPRPRPEHMPRP | -0.0558
RRIRGRPPRLPRPRPRPVYTPRP | 0.00198
RRIRYRPPRLPRPRPRPRRVPRP | 0.00201
RRIRNRPPRLPRPRPRPLLLPRP | -0.25
RRIRQRPPRLPRPRPRPMQWPRP | 0.0039
RRIRNRPPRLPRPRPRPIKHPRP | -0.724
RRIRNRPPRLPRPRPRPKEKPRP | -0.016
RRIRIRPPRLPRPRPRPKKMPRP | 0.222
RRIRPRPPRLPRPRPRPIWRPRP | 0.583
RRIRFRPPRLPRPRPRPGLKPRP | 0.0731
